Laboratory results published in patent US20170190782A1 (ABGENOMICS COOPERATIEF U A, published 2017).

T1: human P-Selectin Glycoprotein Ligand-1 (PSGL-1) (human, UniProt Q14242 42-412)
T1 sequence (looked up): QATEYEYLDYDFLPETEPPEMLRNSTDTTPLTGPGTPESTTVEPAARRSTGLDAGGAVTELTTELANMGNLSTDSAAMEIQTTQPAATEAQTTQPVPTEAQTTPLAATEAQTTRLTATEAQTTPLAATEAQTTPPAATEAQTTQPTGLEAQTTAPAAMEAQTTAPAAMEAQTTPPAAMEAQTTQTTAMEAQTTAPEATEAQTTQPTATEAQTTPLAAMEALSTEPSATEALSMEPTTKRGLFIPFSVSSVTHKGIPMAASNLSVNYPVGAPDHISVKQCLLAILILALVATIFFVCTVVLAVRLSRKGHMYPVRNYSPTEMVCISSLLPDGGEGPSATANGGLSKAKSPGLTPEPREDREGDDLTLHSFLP

T2: E. coli expressed hCD162 fragment 42-319 fused to human immunoglobulin gamma 1 heavy chain constant region (human, UniProt Q14242 42-319)
T2 construct: Expressed in E. coli from pET-32a; junction residues are not spelled out; not shown: human immunoglobulin gamma 1 heavy chain constant region
T2 sequence (looked up): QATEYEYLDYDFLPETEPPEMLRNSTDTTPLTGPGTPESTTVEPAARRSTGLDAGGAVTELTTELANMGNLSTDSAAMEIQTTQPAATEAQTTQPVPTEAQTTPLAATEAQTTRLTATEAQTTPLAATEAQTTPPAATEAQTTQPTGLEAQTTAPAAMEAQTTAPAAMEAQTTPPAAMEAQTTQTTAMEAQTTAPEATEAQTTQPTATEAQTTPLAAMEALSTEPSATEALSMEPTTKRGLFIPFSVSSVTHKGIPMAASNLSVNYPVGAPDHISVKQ

T3: E. coli expressed hCD162 fragment 42-80 fused to human immunoglobulin gamma 1 heavy chain constant region (human, UniProt Q14242 42-80)
T3 construct: range 42-80; Expressed in E. coli from pET-32a; junction residues are not spelled out; not shown: human immunoglobulin gamma 1 heavy chain constant region
T3 chain (looked up): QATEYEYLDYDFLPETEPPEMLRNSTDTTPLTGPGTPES

T4: E. coli expressed hCD162 fragment 42-119 fused to human immunoglobulin gamma 1 heavy chain constant region (human, UniProt Q14242 42-119)
T4 construct: range 42-119; Expressed in E. coli BL21(DE3) from pET-32a; NdeI/BglII cloning adds a start Met and junction residues that are not spelled out; also called fusion protein covering residues 42-119; not shown: human immunoglobulin gamma 1 heavy chain constant region
T4 sequence (looked up): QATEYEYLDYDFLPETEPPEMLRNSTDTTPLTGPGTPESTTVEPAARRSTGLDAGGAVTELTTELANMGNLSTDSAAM


Columns and labels:
[1] = target: human P-Selectin Glycoprotein Ligand-1 (PSGL-1) (human) (UniProt Q14242); test: FACS, inhibition of recombinant human P-selectin binding to activated T cells; competitor P-selectin
[2] = target: T1, human P-Selectin Glycoprotein Ligand-1 …; test: cell-based or functional assay
[3] = target: T2, E. coli expressed hCD162 fragment …; test: sandwich ELISA, fusion protein captured by goat anti-human IgG, antibody at 2 µg/ml
Protocol: (§1) A sandwich ELISA was conducted to study the interaction between the hCD162 fragments and each of 15A7, 9F9, and 43B6. 96-well microtiter plates were coated with goat anti-human IgG (Southern Biotechnology, Cat. No. 2040-01) antibody (2 μg/ml, 50 μl/well) overnight at 4° C. Plates were blocked by incubation with 0.25% of BSA in PBS (150 μl/well) for 1 hour at 37° C. The blocked plates were then incubated with fusion proteins containing various fragments of human CD162 (2 μg/ml) for 2 hours at room temperature. After washing 4 times with PBS containing 0.05% of Tween 20 (PBST), the plates were incubated with testing antibodies (2 μg/ml) for 1.5 hours at room temperature.
(§2) After incubation, the plates were washed 4 times with PBST. 50 μl of 1 to 3000 diluted goat anti-mouse IgG conjugated with alkaline phosphatase (Southern Biotechnology, Cat. No. 1031-04) was then added to each well and the plates were incubated for 1 hour at 37° C. Enzyme reaction was carried out by adding 50 μl of an alkaline phosphatase substrate solution (1 alkaline phosphatase substrate tablet dissolved in 5 ml of substrate buffer containing 0.012 M of Na₂CO₃, 0.16 M of NaHCO₃ and 1 mM of MgCl₂ at pH 8.6), and absorbance at 405 nm was determined.

[4] = target: T3, E. coli expressed hCD162 fragment 42-80 …; test: as above
Protocol: as §1, §2

[5] = target: T4, E. coli expressed hCD162 fragment …; test: as above
Protocol: as §1, §2

[6] = target: T1, human P-Selectin Glycoprotein Ligand-1 …; test: FACS, inhibition of recombinant human P-selectin binding to activated T cells; competitor P-selectin
Protocol: (§3) Human PBMC were activated with 1% PHA for 2 days and maintained in IL-2-containing medium for 3 days. The cells were incubated with titrated 9F9, 15A7, 43B6, KPL-1 (an PSGL-1 antagonist), or a control antibody (9E10) for 30 minutes, followed by the addition of recombinant human P-selectin (1.25 μg/ml). Binding of P-selectin to activated T cells was measured by anti-P-selectin-FITC analyzed on FACS. Consistent with previous reports, KPL-1 almost completely abolished P-selectin's binding to activate T cells at a low concentration (0.31 μg/ml). 43B6 blocked binding of P-selectin to activated T cells as effectively as KPL-1 did, whereas a higher concentration of 9F9 was required to achieve the same effect. Indeed, 0.08 μg/ml KPL or 43B6 was needed to abolish 50% of the binding. In contrast, 5 μg/ml 9F9 was required.

[7] = target: T1, human P-Selectin Glycoprotein Ligand-1 …; test: derived from FACS competition against Biotin-labeled mouse 15A7 on CD162-expressing Sp2/0 cells
Protocol: (§4) Sp2/0 transfectants stably expressing human CD162 were used as source of human CD162 antigen. Biotin-labeled mouse 15A7 was used as tracer. Increasing amounts of competitor antibodies (mouse, chimeric, or humanized 15A7) were mixed with 35 ng of Biotin-labeled mouse 15A7 and incubated with 1×10⁵ CD162-expressing Sp2/0 cells for 1.5 hours at 4° C. with constant shaking. After washing, secondary antibody, Streptavidin-PE (Becton Dickinson Immunocytometry System Inc. Cat. No. 349023) was added to the mixture. After incubating for 45 minutes at 4° C., the cells were washed again, resuspended in 300 μl of PBS-1% of FBS, and subjected to FACS analysis.

[8] = target: T1, human P-Selectin Glycoprotein Ligand-1 …; test: FACS competition against Biotin-labeled mouse 15A7 on CD162-expressing Sp2/0 cells
Protocol: as §4

[9] = target: T3, E. coli expressed hCD162 fragment 42-80 …; test: sandwich ELISA, fusion protein captured by goat anti-human IgG
Protocol: as §1, §2

[10] = target: T4, E. coli expressed hCD162 fragment …; test: as above
Protocol: as §1, §2

[11] = target: T1, human P-Selectin Glycoprotein Ligand-1 …; test: FACS, inhibition of recombinant human P-selectin binding to activated T cells; competitor P-selectin; the antibody binds PSGL-1 but does not block
Protocol: as §3

Row | Percentage of apoptotic T cells (annexin V positive, CD3 gated), Day 0 non-activated human T cells [2] [%] | Percentage of apoptotic T cells (annexin V positive, CD3 gated), Day 7 in vitro activated human T cells [2] [%] | binding result [3] | binding result [4] | binding result [5] | IC50 [6] [µg/mL] | Ka [7] [M⁻¹] | IC50 [8] [µg/mL] | Molecule | further results
1 |  |  |  |  |  |  |  |  | KPL-1 anti-hCD162 antibody (PharMingen) | IC50 [1]: 0.08 µg/mL; concentration that almost completely abolished P-selectin's binding [1]: 0.31 µg/mL
2 | 6.57 | 49.4 | binds | binds | binds | 0.08 |  |  | mouse 43B6 antibody (antibody, V domains shown, Mouse IgG1 from hybridoma m166-43B6; also called m166-43B6; M166-43136) VL: ENVLTQSPAIMSASPGEKVTMTCRASSTVNSTYLHWFQQKSGASPKLWIYGSSNLASGVPARFSGSGSGTSYSLTISSVEAEDAATYYCQQYSGYPLTFGAGTTLELK VH: EVQLQQSGPDLVKPGALVKISCKASGYSFTAYYIHWVKQSHGKSLEWIGRVNPNTGGTSYNPKFKGKAILNVDKSSSTAYMELRSLTSEDSAVYYCARSGSPYYRYDDWGQGTTLTVSS | 
3 |  |  |  |  |  |  | 3.33e+07 | ~4.51 | humanized 15A7 antibody (antibody, V domains shown, V regions were inserted into the pVk and pVg4 vectors (human kappa light chain constant region, human IgG4 heavy chain constant region); also called Hu15A7) VH: EVQLVESGGGLVQPGGSLRLSCAASGFTFSSFGMHWVRQAPGKGLEWVAYINGGSSTIFYANAVKGRFTISRDNAKNTLYLQMNSLRAEDTAVYYCARYASYGGGAMDYWGQGTLVTVSS VL: DIQMTQSPSSLSASVGDRVTITCRSSQSIVHNDGNTYFEWYQQKPGKAPKLLIYKVSNRFSGVPSRFSGSGSGTHFTLTISSLQPEDFATYYCFQGSYVPLTFGQGTKVEIK | 
4 | 5.23 | 51.7 | binds |  |  |  | 4.03e+07 | 3.72 | mouse 15A7 antibody (antibody, V domains shown, Mouse IgG1 from hybridoma m152-15A7; also called m15A7; m152-15A7) VL: DILMTQTPLSLPVSLGDQASISCRSSQSIVHNDGNTYFEWYLQKPGQSPKLLIYKVSNRFSGVPDRFSGSGSGTHFTLNISRVEAEDLGIYYCFQGSYVPLTFGAGTKLELK VH: DVQLVESGGGLVQPGGSRKLSCAASGFTFSSFGMHWVRQAPEKGLEWVAYINGGSSTIFYANAVKGRFTISRDNPKNTLFLQMTILRSEDTAIYYCGRYASYGGGAMDYWGQGTSVTVSS | binding result [9]: no binding (tested: 2 µg/ml); binding result [10]: no binding (tested: 2 µg/ml); IC50 [11]: > 20 µg/mL
5 |  |  |  |  |  |  | 2.62e+07 | ~5.71 | chimeric 15A7 antibody (antibody, V domains shown, Mouse 15A7 VL on the human light chain constant region (pVk) and mouse 15A7 VH on the human IgG1, IgG2 or IgG4 heavy chain constant region (pVg1, pVg2, pVg4)) VH: DVQLVESGGGLVQPGGSRKLSCAASGFTFSSFGMHWVRQAPEKGLEWVAYINGGSSTIFYANAVKGRFTISRDNPKNTLFLQMTILRSEDTAIYYCGRYASYGGGAMDYWGQGTSVTVSS VL: DILMTQTPLSLPVSLGDQASISCRSSQSIVHNDGNTYFEWYLQKPGQSPKLLIYKVSNRFSGVPDRFSGSGSGTHFTLNISRVEAEDLGIYYCFQGSYVPLTFGAGTKLELK | 
6 | 5.82 | 28.7 | binds | binds | binds | 5 |  |  | mouse 9F9 antibody (antibody, V domains shown, Mouse IgG1 from hybridoma m128-9F9; also called m128-9F9) VL: DVLMTQTPLSLPVSLGDQASISCRSSQSIVNSNGNTYLEWYLQKPGQSPKLLIYKVSNRFSGVPDRFSGSGSGTDFTLKISRVEAEDLGVYYCFQGSHVPWTFGGGTKLEIK VH: EVQLVETGGGLVQPKGSLKLSCAASGFTFNTNAMNWVRQAPGKGLEWVARIRSKSNNYATYYADSVKDRFTISRDDTQSMIYLQMNNLKTEDTGMYYCVRGGSYWYFDVWGAGTTVTVSS | 
